Results from patent US7115382B1, “Method for detecting IGFBP-4 protease without detecting IGFBP-4 protease/proMBP Complex” (Mayo Foundation for Medical Education and Research, priority 1999, dated 2006).
Values belong to the molecule of their own block, whether it stands above or below them.

Key:
[1] = target: PAPP-A (IGFBP-4 protease) in IVF follicular fluid (human) (UniProt Q13219); assay: cell-based or functional assay
[2] = target: PAPP-A/proMBP complex purified from pregnancy serum (human) (UniProt Q13219); assay: cell-based or functional assay
[3] = target: insulin-like growth factor binding protein-4 ([125I]IGFBP-4) (human) (UniProt P22692); assay: cell-based or functional assay
[4] = target: T1, IGFBP-4 protease activity in follicular fluid (Homo sapiens, UniProt Q13219); assay: IGFBP-4 proteolysis in IVF follicular fluid, cell-free [125I]IGFBP-4 assay; format: biochemical; conditions: for Effect on IGFBP-4 protease activity in IVF follicular fluid: added to the assay during 6 h incubation; for % Inhibition of IGFBP-4 proteolysis, FF: follicular fluid 10 μl, [125I]IGFBP-4, 6 h 37°C, EDTA 5 mM, 1,10 phenantholine 5 mM, PMSF 10 mM, Pefabloc 1 mM, TIMP-1 5 μg/ml
T1 construct: Follicular fluid was obtained at the time of follicle aspiration for in vitro fertilization (IVF) procedures; from tissue; host or cells: IVF follicular fluid
Description: PAPP-A Activity. […] For some experiments, PAPP-A polyclonal antibody or nonspecific rabbit IgG was added to the assay mixture or was used in conjunction with protein G plus protein A-agarose (Oncogene Science) to immunoprecipitate IGFBP-4 protease activity before assay.
(§1) For some experiments, protease inhibitors (see Table 2) or PAPP-A polyclonal antibody were added to the assay mixture during the 6 h incubation. In others, PAPP-A antibody or nonspecific rabbit IgG was used in conjunction with Protein G-plus/Protein-A-agarose (Oncogene Science) to immunoprecipitate IGFBP-4 protease activity and the sample supernatants were then used in the protease assay.

IGFBP-4 = IGFBP-4 cleavage by PAPP-A forms (rPAPP-A, PAPP-A/proMBP, column fractions); format: biochemical, human; conditions: for Amount required to obtain the same degree of IGFBP-4 cleavage: initial experiment, purified proteins; for IGF-dependent IGFBP-4 protease activity: with and without IGF-II
Description: (§2) PAPP-A Activity. IGFBP-4 proteolysis was assayed by incubating the sample overnight at 37° C. with 2 mM CaC2/50 mM Tris (pH 7.5)/10,000 cpm of [^125I]IGFBP-4 in the absence and presence of 5 nM IGF-II in a total volume of 25 μl. Proteins were separated by reducing 15% SDS/PAGE and visualized by autoradiography. For some experiments, PAPP-A polyclonal antibody or nonspecific rabbit IgG was added to the assay mixture or was used in conjunction with protein G plus protein A-agarose (Oncogene Science) to immunoprecipitate IGFBP-4 protease activity before assay.
(§3) Measurement of PAPP-A Proteolytic Activity: IGFBP-4 proteolysis was assayed as described in Example 1. The activity of the PAPP-A/proMBP complex was compared to the activity of rPAPP-A in two parallel time course experiments scaled up to larger reaction volumes: Equal amounts of sample A (pool of pregnancy serum diluted to 7 μg/ml of PAPP-A/proMBP as determined by ELISA calibrated with purified PAPP-A/proMBP) and sample B (as sample A, but rPAPP-A supernatant added to 7 μg/ml as determined by ELISA calibrated with purified rPAPP-A) were incubated with [^125I]IGFBP-4 in the presence of 5 nM IGF-II. […] The experiment with sample A was also carried out in the presence of polyclonal anti(PAPP-A/proMBP). A similar time course experiment was performed for comparison of PAPP-A activity in selected column fractions.

PAPP-A = target: T2, PAPP-A (Homo sapiens, UniProt Q13219); assay: IGFBP-4 proteolysis by PAPP-A purified from pregnancy serum, [125I]IGFBP-4 assay; format: biochemical; conditions: PAPP-A purified from pregnancy serum 500 ng, EDTA 5 mM, 1,10 phenantholine 5 mM, PMSF 10 mM, TIMP-1 5 μg/ml
T2 construct: a pro-part of 58 residues, and an 1547-residue circulating mature polypeptide; from tissue; host or cells: human term pregnancy serum
Description: as §2
IGFBP-4 proteolysis was assayed as described in Example 1, by incubating sample at 37° C. for 6 h with [^125I]IGFBP-4. Reaction products were separated by nonreducing 7.5–15% gradient SDS-PAGE, and visualized by autoradiography.
as §1

rPAPP-A = target: T3, rPAPP-A (Homo sapiens, UniProt Q13219); assay: Activity of recombinant PAPP-A against IGFBP-4; format: biochemical; conditions: in presence of IGF
T3 construct: because the mature rPAPP-A is antigenic, functional, and secreted abundantly into the culture medium; made in house; host or cells: human embryonic kidney 293T cells, pcDNA3.1-PAPP-A; culture supernatant or purified
T3 sequence (Q13219 with tags, fused parts or gaps): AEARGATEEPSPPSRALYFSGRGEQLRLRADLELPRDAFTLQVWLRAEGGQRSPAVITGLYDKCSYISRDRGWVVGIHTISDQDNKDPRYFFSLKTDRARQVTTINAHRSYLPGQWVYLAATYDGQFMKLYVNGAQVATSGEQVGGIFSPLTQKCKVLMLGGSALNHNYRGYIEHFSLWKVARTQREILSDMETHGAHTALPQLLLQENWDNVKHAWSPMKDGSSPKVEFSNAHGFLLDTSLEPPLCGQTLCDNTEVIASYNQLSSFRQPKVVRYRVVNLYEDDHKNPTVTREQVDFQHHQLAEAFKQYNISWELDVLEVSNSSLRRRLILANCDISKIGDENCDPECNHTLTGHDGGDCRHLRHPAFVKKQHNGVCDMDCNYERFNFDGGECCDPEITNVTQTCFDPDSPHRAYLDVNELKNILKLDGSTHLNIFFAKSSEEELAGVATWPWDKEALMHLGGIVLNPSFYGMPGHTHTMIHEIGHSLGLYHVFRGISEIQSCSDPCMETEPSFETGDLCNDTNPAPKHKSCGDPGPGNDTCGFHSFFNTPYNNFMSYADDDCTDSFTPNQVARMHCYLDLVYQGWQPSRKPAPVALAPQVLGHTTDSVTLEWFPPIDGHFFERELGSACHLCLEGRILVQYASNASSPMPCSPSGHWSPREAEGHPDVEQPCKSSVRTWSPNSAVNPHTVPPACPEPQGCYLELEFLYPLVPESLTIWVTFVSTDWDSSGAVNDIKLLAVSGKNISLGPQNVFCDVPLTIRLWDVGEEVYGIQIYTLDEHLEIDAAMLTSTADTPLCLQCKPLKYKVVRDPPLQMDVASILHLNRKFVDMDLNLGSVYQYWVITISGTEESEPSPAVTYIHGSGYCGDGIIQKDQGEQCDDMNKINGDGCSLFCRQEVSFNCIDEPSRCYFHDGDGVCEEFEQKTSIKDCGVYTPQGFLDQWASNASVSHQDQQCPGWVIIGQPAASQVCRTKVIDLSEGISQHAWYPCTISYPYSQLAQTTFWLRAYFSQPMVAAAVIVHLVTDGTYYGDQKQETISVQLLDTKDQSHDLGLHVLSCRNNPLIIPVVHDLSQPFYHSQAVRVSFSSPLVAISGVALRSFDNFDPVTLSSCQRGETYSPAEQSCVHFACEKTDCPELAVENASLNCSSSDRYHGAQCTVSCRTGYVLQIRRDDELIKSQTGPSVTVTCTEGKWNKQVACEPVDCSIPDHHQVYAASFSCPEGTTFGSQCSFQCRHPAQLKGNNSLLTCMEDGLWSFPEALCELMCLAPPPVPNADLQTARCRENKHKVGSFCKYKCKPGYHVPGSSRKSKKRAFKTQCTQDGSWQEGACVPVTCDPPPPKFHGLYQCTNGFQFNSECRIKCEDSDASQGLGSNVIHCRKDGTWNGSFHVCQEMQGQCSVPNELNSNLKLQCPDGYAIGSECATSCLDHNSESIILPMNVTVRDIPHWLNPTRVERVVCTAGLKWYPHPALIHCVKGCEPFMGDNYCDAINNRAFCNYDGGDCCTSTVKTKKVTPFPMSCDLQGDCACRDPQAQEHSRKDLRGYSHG
Description: as §2, §3

[5] = target: T4, insulin-like growth factor binding protein-4 ([125I]IGFBP-4) (UniProt P22692)
T4 sequence: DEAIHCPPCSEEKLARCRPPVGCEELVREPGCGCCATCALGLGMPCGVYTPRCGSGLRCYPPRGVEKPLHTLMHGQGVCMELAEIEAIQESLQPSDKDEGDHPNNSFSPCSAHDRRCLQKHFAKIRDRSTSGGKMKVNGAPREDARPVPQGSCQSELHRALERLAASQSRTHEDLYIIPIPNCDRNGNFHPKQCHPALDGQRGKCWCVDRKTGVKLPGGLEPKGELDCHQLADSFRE

human granulosa cells = conditions: Iwashita et al. 1996; cited from earlier work
[6] = target: PAPP-A present in pregnancy serum (human, UniProt Q13219 82-1627); assay: cell-based or functional assay
[7] = target: T5, insulin-like growth factor binding protein-4 ([125I]IGFBP-4), P22692
T5 chain: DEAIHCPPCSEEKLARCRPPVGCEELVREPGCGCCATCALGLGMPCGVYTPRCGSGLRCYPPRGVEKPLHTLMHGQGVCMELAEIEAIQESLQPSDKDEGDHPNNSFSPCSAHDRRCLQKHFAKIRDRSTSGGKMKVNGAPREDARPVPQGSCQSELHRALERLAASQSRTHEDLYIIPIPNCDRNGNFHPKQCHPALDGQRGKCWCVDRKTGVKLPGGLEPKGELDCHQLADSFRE

% Inhibition of IGFBP-4 proteolysis (TIMP-1, 5 ug/ml) [1]: 0%
% Inhibition of IGFBP-4 proteolysis (TIMP-1, 5 ug/ml) [2]: 0%
Molecule: TIMP-1 (from UniProt P01033 24-207)

amount required for the same degree of IGFBP-4 cleavage [3]: 50 ng
Molecule: PAPP-A/proMBP complex purified from pregnancy serum (from UniProt Q13219 82-1627; P13727 17-222)

Molecule: Cl.NCCc1ccc(S(=O)(=O)F)cc1 [Pefabloc]
Effect on IGFBP-4 protease activity in IVF follicular fluid [4]: not
% Inhibition of IGFBP-4 proteolysis, FF [4]: 15%

Molecule: uncomplexed PAPP-A: PAPP-A antigen eluting around fraction 24 of pregnancy serum, uncomplexed PAPP-A dimer
Specific activity against IGFBP-4, early versus late eluting Mono Q peak of pregnancy serum (IGFBP-4; fraction 24 versus fraction 43): greater than 25 fold

Molecule: rPAPP-A: recombinant PAPP-A expressed in mammalian cells, secreted as a homodimer of about 400 kDa devoid of proMBP
Amount required to obtain the same degree of IGFBP-4 cleavage (IGFBP-4): 0.1 ng
Difference in specific activity, rPAPP-A versus PAPP-A in pregnancy serum (IGFBP-4; time course, 7 μg/ml each, 5 nM IGF-II): about 100 fold
IGF-dependent IGFBP-4 protease activity (IGFBP-4): cleaves IGFBP-4 in an IGF dependent manner

Molecule: PAPP-A/proMBP: approximately 500 kDa disulfide-linked 2:2 complex of PAPP-A and proMBP purified from pregnancy serum
Amount required to obtain the same degree of IGFBP-4 cleavage (IGFBP-4): approximately 50 ng
IGF-dependent IGFBP-4 protease activity (IGFBP-4): exhibited IGF-dependent IGFBP-4 protease activity

% Inhibition of IGFBP-4 proteolysis, FF [4]: 0%
Inhibition of rPAPP-A activity against IGFBP-4 (rPAPP-A): not
Molecule: TIMP-1: a broad spectrum inhibitor of matrix metalloproteinases
Effect on IGFBP-4 protease activity in IVF follicular fluid [4]: had no effect
% Inhibition of IGFBP-4 proteolysis, PAPP-A (PAPP-A): 0%

Molecule: recombinant PAPP-A (rPAPP-A)
amount required for the same degree of IGFBP-4 cleavage [5]: approximately 50 ng of PAPP-A/proMBP complex purified from pregnancy serum was required to obtain the same degree of IGFBP-4 cleavage as 0.1 ng of rPAPP-A
cleavage of IGFBP-4 [5]: IGFBP-4 was cleaved in the presence, but not in the absence of IGF

Effect on IGFBP-4 protease activity in IVF follicular fluid [4]: completely suppressed
% Inhibition of IGFBP-4 proteolysis, FF [4]: 100%
% Inhibition of IGFBP-4 proteolysis, PAPP-A (PAPP-A): 100%
Inhibition of rPAPP-A activity against IGFBP-4 (rPAPP-A): inhibited
Molecule: c1cnc2c(c1)ccc1cccnc12 [1,10 phenantholine, 1,10-phenanthroline]

Molecule: O=S(=O)(F)Cc1ccccc1 [PMSF]
Effect on IGFBP-4 protease activity in IVF follicular fluid [4]: not
% Inhibition of IGFBP-4 proteolysis, FF [4]: 0%
% Inhibition of IGFBP-4 proteolysis, PAPP-A (PAPP-A): 20%

Effect on IGFBP-4 protease activity in IVF follicular fluid [4]: completely suppressed
Inhibition of rPAPP-A activity against IGFBP-4 (rPAPP-A): inhibited
Molecule: O=C(O)CN(CCN(CC(=O)O)CC(=O)O)CC(=O)O [EDTA]

B1: intact IGFBP4: intact insulin-like growth factor binding protein 4 (protein)
chain: DEAIHCPPCSEEKLARCRPPVGCEELVREPGCGCCATCALGLGMPCGVYTPRCGSGLRCYPPRGVEKPLHTLMHGQGVCMELAEIEAIQESLQPSDKDEGDHPNNSFSPCSAHDRRCLQKHFAKIRDRSTSGGKMKVNGAPREDARPVPQGSCQSELHRALERLAASQSRTHEDLYIIPIPNCDRNGNFHPKQCHPALDGQRGKCWCVDRKTGVKLPGGLEPKGELDCHQLADSFRE
Effect on IGF-stimulated estradiol production (human granulosa cells): inhibited

difference in specific activity between PAPP-A in pregnancy serum and rPAPP-A [6]: ~100 fold
specific activity against IGFBP-4 of the early (uncomplexed) against the late (PAPP-A/proMBP) Mono Q peak [6]: > 25 fold
B2: proform of eosinophil major basic protein (proMBP) (other, human, UniProt P13727 17-222, looked up)
chain: LHLRSETSTFETPLGAKTLPEDEETPEQEMEETPCRELEEEEEWGSGSEDASKKDGAVESISVPDMVDKNLTCPEEEDTVKVVGIPGCQTCRYLLVRSLQTFSQAWFTCRRCYRGNLVSIHNFNINYRIQCSVSALNQGQVWIGGRITGSGRCRRFQWVDGSRWNFAYWAAHQPWSRGGHCVALCTRGGHWRRAHCLRRLPFICSY

B3: PAPP-A (IGFBP-4 protease) in IVF follicular fluid (protein)
chain: EARGATEEPSPPSRALYFSGRGEQLRLRADLELPRDAFTLQVWLRAEGGQRSPAVITGLYDKCSYISRDRGWVVGIHTISDQDNKDPRYFFSLKTDRARQVTTINAHRSYLPGQWVYLAATYDGQFMKLYVNGAQVATSGEQVGGIFSPLTQKCKVLMLGGSALNHNYRGYIEHFSLWKVARTQREILSDMETHGAHTALPQLLLQENWDNVKHAWSPMKDGSSPKVEFSNAHGFLLDTSLEPPLCGQTLCDNTEVIASYNQLSSFRQPKVVRYRVVNLYEDDHKNPTVTREQVDFQHHQLAEAFKQYNISWELDVLEVSNSSLRRRLILANCDISKIGDENCDPECNHTLTGHDGGDCRHLRHPAFVKKQHNGVCDMDCNYERFNFDGGECCDPEITNVTQTCFDPDSPHRAYLDVNELKNILKLDGSTHLNIFFAKSSEEELAGVATWPWDKEALMHLGGIVLNPSFYGMPGHTHTMIHEIGHSLGLYHVFRGISEIQSCSDPCMETEPSFETGDLCNDTNPAPKHKSCGDPGPGNDTCGFHSFFNTPYNNFMSYADDDCTDSFTPNQVARMHCYLDLVYQGWQPSRKPAPVALAPQVLGHTTDSVTLEWFPPIDGHFFERELGSACHLCLEGRILVQYASNASSPMPCSPSGHWSPREAEGHPDVEQPCKSSVRTWSPNSAVNPHTVPPACPEPQGCYLELEFLYPLVPESLTIWVTFVSTDWDSSGAVNDIKLLAVSGKNISLGPQNVFCDVPLTIRLWDVGEEVYGIQIYTLDEHLEIDAAMLTSTADTPLCLQCKPLKYKVVRDPPLQMDVASILHLNRKFVDMDLNLGSVYQYWVITISGTEESEPSPAVTYIHGSGYCGDGIIQKDQGEQCDDMNKINGDGCSLFCRQEVSFNCIDEPSRCYFHDGDGVCEEFEQKTSIKDCGVYTPQGFLDQWASNASVSHQDQQCPGWVIIGQPAASQVCRTKVIDLSEGISQHAWYPCTISYPYSQLAQTTFWLRAYFSQPMVAAAVIVHLVTDGTYYGDQKQETISVQLLDTKDQSHDLGLHVLSCRNNPLIIPVVHDLSQPFYHSQAVRVSFSSPLVAISGVALRSFDNFDPVTLSSCQRGETYSPAEQSCVHFACEKTDCPELAVENASLNCSSSDRYHGAQCTVSCRTGYVLQIRRDDELIKSQTGPSVTVTCTEGKWNKQVACEPVDCSIPDHHQVYAASFSCPEGTTFGSQCSFQCRHPAQLKGNNSLLTCMEDGLWSFPEALCELMCLAPPPVPNADLQTARCRENKHKVGSFCKYKCKPGYHVPGSSRKSKKRAFKTQCTQDGSWQEGACVPVTCDPPPPKFHGLYQCTNGFQFNSECRIKCEDSDASQGLGSNVIHCRKDGTWNGSFHVCQEMQGQCSVPNELNSNLKLQCPDGYAIGSECATSCLDHNSESIILPMNVTVRDIPHWLNPTRVERVVCTAGLKWYPHPALIHCVKGCEPFMGDNYCDAINNRAFCNYDGGDCCTSTVKTKKVTPFPMSCDLQGDCACRDPQAQEHSRKDLRGYSHG
proteolysis of [125I]IGFBP-4 [7]: Incubation of IVF follicular fluid with [125I]IGFBP-4 resulted in the loss of intact IGFBP-4 ... and the generation of radiolabeled fragments of 18- and 14-kDa
